Laboratory results: CN114106174A (SUZHOU SCENE MEDICAL SCIENCE AND TECH LIMITED COMPANY, dated 2022)

T1: OX40 on OX40-overexpressing cells (OX40过表达细胞表面OX40) (UniProt P43489 29-277, limits assumed)
T1 construct: whole, on cells; The cell line and the construct of the overexpressing cells are not described; also called CD134; TNFRSF4
T1 sequence (looked up): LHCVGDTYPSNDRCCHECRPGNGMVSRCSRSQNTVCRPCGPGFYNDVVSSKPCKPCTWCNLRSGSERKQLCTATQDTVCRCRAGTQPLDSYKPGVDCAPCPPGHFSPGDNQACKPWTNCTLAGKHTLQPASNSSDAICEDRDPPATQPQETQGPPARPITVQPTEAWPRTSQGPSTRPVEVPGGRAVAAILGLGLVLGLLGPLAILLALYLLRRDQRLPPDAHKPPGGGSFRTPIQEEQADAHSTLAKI


Target: T1, OX40 on OX40-overexpressing cells …
Assay: flow cytometry, hybridoma supernatant on OX40-overexpressing cells, goat anti-mouse IgG-PE

Row | Binder | Y586通道PE荧光值
1 | 18F5-2 (antibody, V domains shown) VH: QVQMQESGPGLVKPSGTLSLICAVSGGSISSSKWWSWVRQPPGKGLEWIGEIYHSGSTNYNPSLKSRVTISIDKSKNQFSLRLTSVTAADTAVYYCARGDVLLWFGGQGTLVTVSS VL: not shown | 432000
2 | 26C3-4 (antibody, V domains shown) VH: QVQLQESGPGLVKPSGTLSLTCDVSGGSISSSNWWSWVRQPPGKGLEWIGEIYHSGSTNYNPSLKSRVTISVDKSKNQVSLKLNSVTAADTAVYYCARGDILLWFGGQGTLVTVSS VL: not shown | 416000
3 | 20G6-7-1 (antibody, V domains shown) VH: QVQLQESGPGLVKPSGTLSLTCAVSGGSISSSNWWSWVRQPPGKGLEWIGEIYHSGNTNYNPSLKSRVTISVDKSKNQFSLKLSSVTAADTAVYYCARGGTTFDYWGQGTLVTVSS VL: EIVLMQYPGTLSLSSGERATLSCRASQSVSSRYLAWYQQKPGQAPRLLIYGASNRASGMPDRFSGSGSGTEFTLTISSLEPEDFAMYYCQQYGSSPITFGQGTRVEIKR | 352000
4 | 29A9-5 (antibody, V domains shown) VH: QVQLQESGPGLVKPSGTLSLTCAVFGDSISSSYWWSWVRQPPGKGLEWIGEIYHSGSTHYNPSLKSRVTISVDKSKNHLSLKLISVTDADTAVYYCAGEDTGWPFDFWGQGTLVTVSS VL: not shown | 221000
5 | 21D2-3 (antibody, V domains shown) VH: QVQLVESGGGLVKPGGSLRLSCAASGFTFSDYYMSWIRQAPGKGLEWVSYISSSGTTIYCADSVKGRFTISRDNAKNSLYLQMNSLRAEDTAVYYCARDSSTWYEGNYFDYWGQGTLVTVSS VL: not shown | 202000
6 | 17D5-11 (antibody, V domains shown) VH: QVQLQESGPGLVKPSETLSLTCAVSGGSINSTNWWSWVRQPPGKGLEWIGEIYHSGSTNYNPSLKSRVTISVDKSKNQFSLKLSSVTAADTAVYYCARGGAVALDYWGQGTLVTVSS VL: EIVLTQSPGPLSLSPGDRATLSCRASQTVSSSYLAWYLQKPGQAPRLLIYGASIRATGIPDRFSGSGSGTDFTLTISRLEPEDFAVYYCQQYGNSPITFGQGTRLEIKR | 475000
7 | 24B9-10 (antibody, V domains shown) VH: QVQLQESGPGLVKPSGTLSLTCAVSGGSISSSNWWTWVRQPPGKGLEWIGEIYHSGSTNYNPSLKSRVTISVDKSKNQFSLKLSSVTAADTAVYYCARTGPIVTTEYWGQGTLVTVSS VL: EIVLTQSPGTLSLSPGERATLSCRASQSVSSGYLAWYQQKPGQAPRLLIYGASIRATGIPDRFSGSGSGTDFTLTISRLEPEDFALYYCQQYGSSPLTFGGGTKVEIKR | 313000
8 | 21F3-11 (antibody, V domains shown) VH: QVQLQESGPGLVKPSGTLSLTCAVSGGSISSSNWWSWVRQPPGKGLEWIGEIYHGGSTNYNPSLKSRITISVDKSKNQFSLKLSSVTAADTAMYYCATLPGYSSGWFDSWGQGTLVTVSS VL: EIVLMQSPGTLSLSPGERATLSCRASQSVSSSYLAWYQQKPGQAPSLLIYGASNRASGIPDRFSGSGSGTDFTLTITRLEPEDFAVYYCQQYGSSPLTFGGGTRVEIKR | 171000
9 | 14D3-7-3 (antibody, V domains shown) VH: EVQLVESGGGLVKPGGSLRLSCAASGFTFSNAWMSWVRQAPGKGLEWVGRIKRKTDGGTTDYATPVKGRFTISRDASKNTLYLQMNSLKTEDTAVYYCTSAARRGYFDIWGRGTLVTVSS VL: EIVLTQSPGTLSLSPGERATLSCRASQSVSSRYLAWYQQKPGQAPRLLIYGASNRATGMPDRFSGSGSGTDFTLTISRLEPEDFAMYYCQQYGSSPITFGQGTRLEIKR | 274000
10 | 24A12-12 (antibody, V domains shown) VH: QVQLQESGPGLVKPAGTLSLTCAVSGGSISSSNWWNWVRQPPGKGLEWIGEIYHSGSTNYNPSLKSRVTISVDTSKNQFSLKLTSVTAADTAVYYCARTGPTVTTDYWGQGTLVTVSS VL: EIVLTQSPGTLSLSPGERATLSCRASQSVSSSYLAWYQQKPGQAPRLLIYGASYRATGMPERFSGSGSGTDFTLTISRLEPEDFAIYYCQQYGRSPLTFGGGTKVEIKR | 343000
11 | 21F9-12 (antibody, V domains shown) VH: QVQLQESGPGLVKPSGTLSLTCAVSGGSISSYNWWSWVRQPPGKGLEWIGEIYHSGNTNYNPSLKSRVTISVDKSKNQFSLKLSSVTAADTAMYYCARDQDYYGSGNFYYWGQGTLVTVSS VL: not shown | 424000
12 | 23D1-8 (antibody, V domains shown) VH: QVQLVQSGAEVKKPGASVKVSCKASGYTFTGYYIHWVRQAPGQGLEWMGRINPNSGGTDFAQKFQARVTMTRDTAINIVYMELSRLRSDDTAVYYCARVVVASYYFDNWGQGTLVTVSS VL: not shown | 166000
13 | 48D10-5 (antibody, V domains shown) VH: QVQLVQSGAEVKKPGASMKVSCKASGYTFANFGINWVRQAPGQGLEWMGWISAYNGYTNYAQQFQGRITMTTDTSTSTAYMELRSLRSDDTAIYYCVIWFGELLSFDYWGQGTLVTVSS VL: DIQMTQFPSSLSASVGDRVTITCRASQDISNYLAWFQQKPGKAPKSLIYAASSLQSGVPSKFSGNGFGTDFTFPLSRMQPEDFASSYCQQYNNYTFTFGRGTKVEIKR | 358000
14 | 28E3-4 (antibody, V domains shown) VH: QVQLQESGPGLVKPSGTLSLTCAVSGGSISRSNWWTWVRQSPGKGLEWIGEIYHSGNTNYNPSLKSRVTISLDKSKNQFSLKLSSVTAADTAVYYCASSGSLYMDVWGKGTTVTVSS VL: DIQMTQSPSSLSASVGDRVTISCRASQSTSSYLNWYQQKPGKAPRLLIYGASSLQSGVPSRFSGSGSGTDFILTISSLQPEDFATYYCQQSYSIPITFGQGTRLEIKR | 195000
15 | 4D9-12 (antibody, V domains shown) VH: QVQLQESGPGLVKPSGTLSLTCAVSGGSISSSNWWSWVRQPPGKGLEWIGEIYHSGNTIYNPSLKSRVTISLDKSKNQFSLKLSSVTAADTAVYYCASSGSLYMDVWGKGTTVTVSS VL: DIQMTQSPSSLLSSVGDRVTISCRASHGSSTYLNWYQQKPGKAPRLLIYGASSLQSGVPSRFSGSGFGTDFILTISSMQPEDFATYYCQQSYSIPITFGQGTRLEIKR | 187000

Other lines, results leading:

Row | Y586通道PE荧光值 | Binder
16 | 170000 | 1F10-12-3 (antibody, V domains shown) VH: QVQLQESGPGLVKPSGTLSLTCAVSGGSISNSNWWNWVRQPPGRGLEWIGEIYHSGSTNYNPSLKSRVTISVDKSKNQFSLKLTSVTAADTAVYYCARYSTPFFDYWGQGNLVTVSS VL: DIQMTQSPSSLSASVGDRVTITCRASQSISNYLNWYQQKQGKAPKLLIYGASSLQSGVPSRFSGSGSGTDFTLTINSLQPEDFATYCCQQSYNNPLTFGGGTKVEIKR
17 | 243000 | 35B8-6 (antibody, V domains shown) VH: QITLKESGPTLVKPTQTLTLTCTFSGFSLSTSAVNVGWIRQPHGKALEWLALIFWNDDKRYSPSLKNRLTITKDTSKDQVVLTMSNMDPVDTATYYCAQYNWNSSFDYWGQGTLVTVSS VL: DIQMTQSPSSLSASLGDRVTITCQASQDINTYLNWYQQKPGKAPKVLIYDASNLETGVPSRFSGSGSGTDFTFTISSLQPEDIATFYCQQYDNLITFGGGTKVEIKR
18 | 63900 | 23C4-1-5 (antibody, V domains shown) VH: QVQLQESGPGLVKPSGTLSLTCAVSGGSISSSNWWSWVRQPPGKGLEWIGEIYHSGSTTYNPSLKSRVTISVDKSKSQISLKLTSVTAADTAVYYCARGDVLLWFGGRGTLVTVSS VL: EIVLTQSPGTLSLSPGERASLSCRASQSVSSNYLAWYQQKPGQTPRLLIYGASIRATGIPDRFSGSGSGTDFTLIISRLEPEDFAVYYCQQYSSSPITFGQGTRLEIKR
19 | 377000 | 16E4-10-5 (antibody, V domains shown) VH: QVQLQESGPGLVKPSGTLSLTCDVSGGSISSSNWWSWVRQPPGKGLEWIGEIYHSGSTNYNPSLKSRVTISVDKSKNQVSLKLNSVTAADTAVYYCARGDILLWFGGQGTLVTVSS VL: EIVLTQSPGTLSLSPGERATLSCRASQSVSSRYLAWYQQKPGQAPRLLIYGASNRATGMPDRFSGSGSGTDFTLTISRLEPEDFAVYYCQQYGSSPITFGQGTRLEIKR
20 | 540000 | 20D2-12 (antibody, V domains shown) VH: QVQLVESGGGLVKPGGSLRLSCAASGFTFSDYYMSWIRQAPGRGLEWISYISGSDSTIYYEDSVMGRFTISRDNAKNSLYLQMNSLRAEDTAVYYCARDRDVYGYSGYGYFDYWGQGTLVTVSS VL: EIVLTQSPGTLSLSPGERATLSCRASQSVSSRYLAWYQQKPGQAPRLLIYGASNRATGMPDRFSGSGSGTDFTLTISRLEPEDFAVYYCQQYGSSPITFGQGTRLEIKR
21 | 402000 | 18F11-4 (antibody, V domains shown) VH: QVQLQESGPGLVKPSGTLSLTCAVSGGSISSYNWWSWVRQPPGKGLEWIGEIYHSGSTNYNPSLKSRVTISVDKSKNQFSLKLSSVTAADTAVYYCARDEDYYGSGNYYHWGQGTLVTVSS VL: not shown
22 | 437000 | 24F8-7 (antibody, V domains shown) VH: QVQLQESGPGLVKPSGTLSLTCAVSGGSISSYNWWSWVRQPPGKGLEWIGEIYHSGSTNYNPSLKSRVTISVDKSKNQFSLKLSSVTAADTAVYYCARDEDYYGSGNYYHWGQGTLVTVSS VL: not shown
23 | 388000 | 29B8-3 (antibody, V domains shown) VH: QVQLQESGPGLVKPSGTLSLTCAVSGVSISSSNWWSWVRQPPGKGLEWIGEIYHSGNTNYNPSLKSRVTISVDKSKNQFSLKLSSVTAADTAVYYCAETSTITTNYWGQGTLVTVSS VL: DIQMTQSPSSLSASVGDRVTITCRASQTISSYLNWYQQKPGKAPKLLIYAASSLQSGVPSRFSGSESGTDFTLTISSLQPEDFATYYCQQTYSIPITFGQGTRLEIKR
24 | 243000 | 38D9-12 (antibody, V domains shown) VH: QVQLQESGPGLVKPSGTLSLTCAVSGDSISSTNWWSWVRQPPGKGLEWIGEINHNGSTYYNPSLKSRVTISVDKSKNQFSLKLRSVTAADTAVYYCAREDYYYMDVWGKGTTVTVSS VL: DIQMTQSPSSLSASVGDRVTITCRTSQGIWNDLGWYQQKPGKAPKRLIYAASSLQSGVPSRFSGSESGTEFTLTISSLQPEDFATYYCLQYNNYPLTFGGGTKVEIKR
